Assay [1] has as its target T1, mouse EphA4 extracellular region-Fc-His protein (mouse; human, UniProt Q03137 20-547).
T1 construct: Used as culture supernatant of transfected cells; not shown: Fc region of human IgG1; histidine tag
As to the kind of experiment: ELISA: EphA4 extracellular region-Fc-His (1 nM) captured on anti-human IgG antibody, antibody A titrated with human IgG 100 µg/mL, HRP anti-mouse IgG, OD450 as % of top concentration. How it is done: (§1) Donkey anti-human IgG antibodies (Jackson ImmunoResearch Laboratories) were coated onto the wells of a 96-well plate (Nunc). After incubating at 4° C. overnight, the wells were blocked at room temperature for 1 hour by 1% Block Ace (DS Pharma Biomedical). After washing 3 times with 0.05% Tween 20/PBS (Thermo […]), mouse, rat, monkey, and human EphA4 extracellular region-Fc-His proteins (final concentration 1 nM) were seeded into the wells, and incubated at room temperature for 1 hour. After washing 3 times, human IgG solution (100 μg/mL, Mitsubishi Pharma Corporation) and antibody A (0, 0.00013, 0.00064, 0.0032, 0.016, 0.08, 0.4, 2, 10, μg/mL) were supplemented to the wells, and incubated at room temperature for 1 hour. Horseradish peroxidase-labeled donkey anti-mouse IgG antibody (Jackson ImmunoResearch Laboratories) was added, and incubated at room temperature for 1 hour. After washing 3 times, TMBZ (3,3′,5,5′-tetramethylbenzidine, Sigma) solution was added to the wells, and upon confirmation of modest coloring, an equal amount of quenching solution (1 N H₂SO₄, Wako Pure Chemicals) was added to the wells, and absorbance at 450 nm was read by a microplate reader (PerkinElmer).
For orientation: ELISA stands for enzyme-linked immunosorbent assay.

Assay [2] concerns the target T2, monkey EphA4 extracellular region-Fc-His protein (monkey; human).
T2 construct: not shown: Fc region of human IgG1; histidine tag
The description is as above. As to the method: as §1

The target of assay [3] is T3, human EphA4 extracellular region-Fc-His protein (human, UniProt P54764 20-547).
T3 construct: not shown: Fc region of human IgG1; histidine tag
The description is as above. As to the method:
as §1

Assay [4] has as its target T4, rat EphA4 extracellular region-Fc-His protein (rat; human, UniProt D3ZZK3 20-547).
T4 construct: range 20-547; also called rat EphA4 extracellular region-Pc-His protein; not shown: Fc region of human IgG1; histidine tag
The assay is described as above. How it is done:
as §1

The target in assay [5] is T5, mouse EphA10 extracellular region-Fc-His protein (mouse; human, UniProt Q8BYG9 23-565).
T5 construct: extracellular domain; not shown: Fc region of human IgG1; histidine tag
T5 sequence (looked up): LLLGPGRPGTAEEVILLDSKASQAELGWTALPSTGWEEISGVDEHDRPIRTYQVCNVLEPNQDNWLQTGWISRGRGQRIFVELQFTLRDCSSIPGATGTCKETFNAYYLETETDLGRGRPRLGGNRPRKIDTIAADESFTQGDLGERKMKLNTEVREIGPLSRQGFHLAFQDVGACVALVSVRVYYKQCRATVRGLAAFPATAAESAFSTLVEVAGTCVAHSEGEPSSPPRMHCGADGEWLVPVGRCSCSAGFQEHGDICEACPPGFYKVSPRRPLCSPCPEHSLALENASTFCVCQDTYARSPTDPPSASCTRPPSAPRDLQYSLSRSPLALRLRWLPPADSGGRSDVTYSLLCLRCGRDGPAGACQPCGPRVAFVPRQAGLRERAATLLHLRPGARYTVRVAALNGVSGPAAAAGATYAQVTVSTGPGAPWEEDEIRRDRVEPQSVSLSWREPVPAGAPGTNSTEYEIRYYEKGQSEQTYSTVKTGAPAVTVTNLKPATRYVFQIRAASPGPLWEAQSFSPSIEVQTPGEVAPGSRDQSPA
The experiment in a line: ELISA: Fc-His proteins (1 nM) captured on anti-6-His antibody, antibody A 10 µg/mL with human IgG 100 µg/mL, HRP anti-mouse IgG, OD450 as % of mouse EphA4-Fc-His.

T3 sequence (P54764 20-547): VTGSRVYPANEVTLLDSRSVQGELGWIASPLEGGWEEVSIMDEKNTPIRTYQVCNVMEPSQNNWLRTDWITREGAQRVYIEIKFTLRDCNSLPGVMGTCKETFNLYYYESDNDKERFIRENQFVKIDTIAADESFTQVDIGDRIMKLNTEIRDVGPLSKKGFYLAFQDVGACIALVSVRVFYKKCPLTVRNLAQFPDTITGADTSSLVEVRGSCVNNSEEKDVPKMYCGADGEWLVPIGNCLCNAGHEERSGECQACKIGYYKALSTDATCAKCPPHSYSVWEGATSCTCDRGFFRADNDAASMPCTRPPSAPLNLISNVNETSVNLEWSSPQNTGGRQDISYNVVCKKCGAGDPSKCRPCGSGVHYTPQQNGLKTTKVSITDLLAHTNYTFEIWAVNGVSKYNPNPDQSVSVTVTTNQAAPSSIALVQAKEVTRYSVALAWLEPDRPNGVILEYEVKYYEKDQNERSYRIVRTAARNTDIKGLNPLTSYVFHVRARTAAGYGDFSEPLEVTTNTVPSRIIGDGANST
T2 sequence (chain, as listed by the source): as the sequence (P54764 20-547) above, with N406S counted along it
T1 sequence (Q03137 20-547): as the sequence (P54764 20-547) above, with P59A, N121S, V124G, R250Q, S251N, T270S, K378R, N406S counted along it

B1: mouse anti-EphA4 monoclonal antibody (antibody A) (antibody, mouse IgG1, kappa, V domains shown)
VH: QVQLKQSGPSLVQPSQSLSITCTVSGFSLTRYGVHWVRQSPGKGLEWLGVIWRGGSTDYNAAFMSRLSITKDNSKSQVFFKMNSLQADDTAIYYCAKESLFGVYYDYGYYSMDYWGQGTSVTVSS
VL: DIQMTQSPSSLSASLGERVSLTCRASQEISGYLSWLQQKPDGTIKRLIYAASTLDSGVPKRFSGSRSGSDYSLTISSLESEDFADYYCLQYASYPLTFGAGTKLELKR
notes: purified from hybridoma supernatant
Consider B1, for which the “EC50 (read off the curve)” value in assay [1], in assay [2], in assay [3] and in assay [4] was approximately 0.1 nM each time. Further, the binding result in assay [5] is “no binding (tested: 10 µg/mL)”.

The values are drawn from US20240010735A1 (EISAI R AND D MANAGEMENT, published 2024).
